Results published in patent WO2021241730A1 (dated 2021).
Residue numbers refer to the chain shown, from its start.

Tests used:
[1] = target: T1, monkey IL-22BP-His (monkey); assay: direct ELISA on coated monkey IL-22BP-His, purified rat antibody
T1 chain: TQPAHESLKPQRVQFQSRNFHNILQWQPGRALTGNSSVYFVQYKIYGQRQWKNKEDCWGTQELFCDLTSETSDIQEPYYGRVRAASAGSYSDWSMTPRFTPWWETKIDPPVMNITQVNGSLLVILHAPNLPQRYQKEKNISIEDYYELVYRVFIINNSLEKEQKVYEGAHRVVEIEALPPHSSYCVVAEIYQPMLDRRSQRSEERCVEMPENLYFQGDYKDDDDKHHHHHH

[2] = target: T2, mouse IL-22BP-His (mouse, UniProt Q80XF5 21-230); assay: direct ELISA on coated mouse IL-22BP-His, purified rat antibody
T2 chain: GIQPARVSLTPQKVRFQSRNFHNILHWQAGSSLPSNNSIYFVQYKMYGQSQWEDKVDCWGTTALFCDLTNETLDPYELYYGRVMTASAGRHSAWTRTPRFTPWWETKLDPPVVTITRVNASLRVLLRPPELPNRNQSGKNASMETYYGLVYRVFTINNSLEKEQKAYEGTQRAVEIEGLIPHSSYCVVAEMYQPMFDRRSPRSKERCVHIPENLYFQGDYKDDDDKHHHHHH

[3] = target: T3, human IL-22BP (Isoform 2)-His (human, UniProt Q969J5 22-263); assay: direct ELISA on coated human IL-22BP-His, purified rat antibody
T3 construct: Expressed in FreeStyle 293F cells and purified from the culture supernatant; also called human IL-22BP-His
T3 sequence: T1 chain with P3S, A4T, F64S, D92E, Q132Y, I140V, V149L, V172A, P179T, M209I

[4] = target: T2, mouse IL-22BP-His; assay: direct ELISA on coated mouse IL-22BP-His
[5] = target: T3, human IL-22BP (Isoform 2)-His; assay: direct ELISA screen on coated human IL-22BP-His, then competition ELISA with IL-22; hybridoma supernatant
[6] = target: T3, human IL-22BP (Isoform 2)-His; assay: competition ELISA on captured human IL-22BP-His, IL-22 as competitor; stronger inhibitory tendency than cMAb4 and the hMAb4 antibodies
[7] = target: T3, human IL-22BP (Isoform 2)-His; assay: competition ELISA on captured human IL-22BP-His, IL-22 as competitor; weaker inhibitory tendency than cMAb3 and the hMAb3 antibodies

B1: rat anti-human IL-22BP antibody rMAb8 (antibody, rat IgG2a, V domains shown)
VH: QVQLKESGPGLVQPSQTLSLTCTVSGFSLSSYTVSWVRQPPGKGLDWIAAISSGGSTYYNSALKSRLTISRDTSKSQVFLKMNSLQTEDTAMYFCARSTGDYWGQGVMVTVSS
VL: DIQMTQSPSLLSASVGDRVTLNCKASQSIYKNLAWYQQKLGEAPKLLIYSAKSLQTGTPSRFSGSGSGTDFTLTISSLQPEDVATYFCHQYYSGWTFGGGTKLELKR
notes: Rat IgG2a, kappa chain, from hybridoma
- binding result [1]: binds
- binding result [2]: binds
- binding result [3]: binds

B2: rat anti-human IL-22BP antibody rMAb14 (antibody, rat IgG1, V domains shown)
VH: B1 VH with S30T, D46E, T68S, N83S, T90A
VL: B1 VL with S28N, A43T, K45R, K52N, S53R, T58I
notes: Rat IgG1, kappa chain, from hybridoma
- binding result [1]: binds
- binding result [2]: binds
- binding result [3]: binds

B3: rat anti-human IL-22BP antibody rMAb20 (antibody, rat IgG1, V domains shown)
VH: QVQLKESGPGLVQPSQTLSLACTVSGFSLTTYHVHWVRQPSGEGLEWMGVIWTGGSTEYNSALKPRLSISRDTSKSQVFLKMNVLQTEDTATYYCARESRGRRIFDYWGQGVMVTVSS
VL: DIQMTQSPSVLSASVGDRVTLNCKASQNINKYLNWYQQKLGEAPKLLIYNTNNLQTGIPSRFSGSGSGTDYTLTISSLQPEDFGTYFCFHHNSWPLTFGSGTKLEIKR
notes: as for B2
- binding result [1]: binds
- binding result [3]: binds
- binding result [4]: no binding

B4: rat anti-human IL-22BP antibody rMAb81 (antibody, rat IgG1, V domains shown)
VH: EVQLVESGGGLVQPGRSLKLSCLASGFTFSNYGMNWIRQAPGKGLEWVATISSGSSYIYYADTVKGRFTISRENARNTLYLQMTSLRSEDTAFYYCARPLTGAFDYWGQGVMVTVSS
VL: DIVLTQSPALAASLGQRATISCRASQSVSTSSHNLMHWYQQKPGHQPKLLIYAASNLASSIPARFSGSGSGTDFTLTINPVQADDIATYYCQQSRELPLTFGSGTKLEIKR
notes: as for B2
- binding result [1]: binds
- binding result [3]: binds
- binding result [4]: no binding

B5: rat anti-human IL-22BP antibody rMAb3 (antibody, rat IgG1, V domains shown)
VH: EVQLQQSGAELVRPGTSVKLSCKLSGGTISAYFIHFVKQRPGQGLEWIGRIDPEDDSTEYAEKFKNKATLTADTSSNTAYLILGSLTSDDTATYFCTTGSDYWGQGVMVTVSS
VL: DVVMTQTPVSLSLAIGQPASISCKSSQSLLGTSGKTFLNWILQRPGQSPKRLIYQVSKLYSGVPDRFSGSGSETEFTLKISRVEAEDLGVYYCWQGTLFPRTFGGGTKLEVKR
notes: as for B2
- binding result [1]: binds
- binding result [5]: binds
- binding result [4]: no binding

B6: rat anti-human IL-22BP antibody rMAb4 (antibody, rat IgG1, V domains shown)
VH: EVQLVESGGGLVQPGRSLKLSCAASGFTYSNYVMAWVRQAPTKGLEWVASISTGGGNTSYRDSVKGRFTISRDNAKNTLYLQMDSLRSEDTATYYCANVSPTEGMDYWGQGVMVTVSS
VL: DIVMTQGALPNPVPSGESVSITCRSSKSLLYSNGKTYLNWYLQRPGQSPQLLIYWMSTRASGVSDRFSGGGSGTDFTLKISGVEAEDVGVYYCQQGLELPLTFGSGTKLEIKR
notes: as for B2
- binding result [1]: binds
- binding result [5]: binds
- binding result [4]: no binding

B7: human chimeric anti-human IL-22BP antibody cMAb3 (antibody, human IgG1, kappa, V domains shown)
VH: B5 VH
VL: B5 VL
notes: Rat variable regions on human IgG1 / kappa constant regions
- binding result [6]: binds

B8: humanized anti-human IL-22BP antibody hMAb3_H01L03 (antibody, human IgG1, kappa, V domains shown)
VH: EVQLVQSGAEVKKPGASVKVSCKASGGTISAYFIHWVRQAPGQGLEWMGRIDPEDDSTEYAQKFQGRVTITADTSTNTAYMELSSLRSEDTAVYYCTTGSDYWGQGTLVTVSS
VL: B5 VL with S12P, L13V, A14T, I15L, L42Q, E73G, E75D, L88V, L109V, V111I
notes: Human IgG1 / kappa
- binding result [6]: binds

B9: humanized anti-human IL-22BP antibody hMAb3_H01L04 (antibody, human IgG1, kappa, V domains shown)
VH: B8 VH
VL: DVVMTQSPLSLPVTLGQPASISCKSSQSLLGTSGKTFLNWIQQRPGQSPKRLIYQVSKLYSGVPDRFSGSGSGTEFTLKISRVEAEDVGVYYCWQGTLFPRTFGGGTKVEIKR
notes: Human IgG1 / kappa
- binding result [6]: binds

B10: humanized anti-human IL-22BP antibody hMAb3_H04L03 (antibody, human IgG1, kappa, V domains shown)
VH: B8 VH with A24L, W36F, I70L, M81L, Y95F
VL: B9 VL with S7T, L9V, E75D
notes: Human IgG1 / kappa
- binding result [6]: binds

B11: human chimeric anti-human IL-22BP antibody cMAb4 (antibody, human IgG1, kappa, V domains shown)
VH: B6 VH with S59A, N98R
VL: B6 VL
notes: as for B7
- binding result [7]: binds

B12: humanized anti-human IL-22BP antibody hMAb4_H03L01 (antibody, human IgG1, kappa, V domains shown)
VH: EVQLVESGGGLVQPGGSLRLSCAASGFTYSNYVMAWVRQAPGKGLEWVASISTGGGNTAYRDSVKGRFTISRDNSKNTLYLQMNSLRAEDTAVYYCARVSPTEGMDYWGQGTLVTVSS
VL: DIVMTQGPLSLPVTPGEPASISCRSSKSLLYSNGKTYLNWYLQKPGQSPQLLIYWMSTRASGVPDRFSGGGSGTDFTLKISRVEAEDVGVYYCQQGLELPLTFGQGTKVEIKR
notes: Human IgG1 / kappa
- binding result [7]: binds

B13: humanized anti-human IL-22BP antibody hMAb4_H03L03 (antibody, human IgG1, kappa, V domains shown)
VH: B12 VH
VL: DIVMTQGPDSLAVSLGERATITCRSSKSLLYSNGKTYLNWYQQKPGQPPKLLIYWMSTRASGVPDRFSGGGSGTDFTLTISSLQAEDVAVYYCQQGLELPLTFGQGTKVEIKR
notes: Human IgG1 / kappa
- binding result [7]: binds

B14: humanized anti-human IL-22BP antibody hMAb4_H02L05 (antibody, human IgG1, kappa, V domains shown)
VH: B12 VH with A49S
VL: DIQMTQSPSSLSASVGDRVTITCRSSKSLLYSNGKTYLNWYQQKPGKSPKLLIYWMSTRASGVPDRFSGGGSGTDFTLTISSLQPEDFATYYCQQGLELPLTFGQGTKVEIKR
notes: Human IgG1 / kappa
- binding result [7]: binds
